# Test results from the supplement of paper PMC9732359.
# ± gives the uncertainty stated by the source.
# Assay: protein stability index of a GFP-peptide fusion (yeast GPS) (PSI 1-4); higher = more stable; sorted into four equal gates, so the index is relative within each strain
# How it was run: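 Plasmids isolated from each sorting gate were PCR-amplified and Illumina-sequenced, and barcodes assigned the reads to strains. The gates, four of equal size, were set by GFP/Cherry fluorescence ratio on mid-log cultures in leucine-free medium. These cultures were yeast carrying a pooled library of tiled 17-residue yeast protein peptides fused downstream of GFP on a plasmid that also expresses Cherry. The protein stability index is the sum of every gate's read frequency times its gate number.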
Sequence,protein stability index (doa10∆),protein stability index (pdr5∆),protein stability index (san1∆),protein stability index (ubr1∆)
RLLPNGSNKAQISIIDI [YML031W/NDC1],2.91 ± 0.076,3.11 ± 0.067,2.6 ± 0.048,2.92 ± 0.035
NCEYEDPPNEGDPFDYK [RPB3],3.16 ± 0.13,3.4 ± 0.12,3.36 ± 0.11,3.14 ± 0.06
TRAKAKVEEMNNIIAAS [RPL36A],,3.18 ± 0.14,,
LAIADSPQKFETNLQTF [ECM29],2.96 ± 0.11,3.3 ± 0.098,3.25 ± 0.048,2.79 ± 0.091
CITKQDGFKIYDNEKTA [PUP2],2.85 ± 0.1,3.06 ± 0.063,3.1 ± 0.05,2.82 ± 0.095
LNLEQVTLNKYCSGNIY [YJL039C/NUP192],2.37 ± 0.044,2.16 ± 0.048,2.59 ± 0.052,2.39 ± 0.046
SSQVREHVKELLKYSNE [RPL1A],1.63 ± 0.077,2.23 ± 0.06,2.47 ± 0.085,2.13 ± 0.047
IDGKTVSYKDYSIFLEN [SMC1],2.72 ± 0.062,3.07 ± 0.057,2.85 ± 0.061,2.89 ± 0.046
LGKKKNVKEEETVAKSK [RPS8A],3.22 ± 0.052,3.31 ± 0.05,3.335 ± 0.031,3.25 ± 0.039
VYGEGTSRVTGILLLDS [YJL039C/NUP192],3.19 ± 0.19,3.31 ± 0.091,,3.44 ± 0.091
SFIISSLDTLELESITE [NUT1],1.74 ± 0.075,1.64 ± 0.042,1.78 ± 0.083,1.78 ± 0.04
NKELPINHTILGKLQDV [RPN8],2.62 ± 0.051,2.69 ± 0.068,2.5 ± 0.064,2.67 ± 0.049
YKALRGMVSHKTARGKA [RPL16A],2.45 ± 0.08,2.1 ± 0.06,2.51 ± 0.096,1.84 ± 0.12
SVKLKQKRLEAGALNLA [DIS3],3.42 ± 0.13,3.11 ± 0.12,3.36 ± 0.081,3 ± 0.071
VGVENNGQYAAFVKDMQ [RPC37],3.21 ± 0.12,2.79 ± 0.15,3.19 ± 0.092,3.41 ± 0.1
MLPGSSNGGGKVKPIRG [RPO31],3 ± 0.073,3.36 ± 0.13,3.15 ± 0.076,3.07 ± 0.068
RDKKEKKQAQKQTKLRK [SMB1],3.43 ± 0.072,3.53 ± 0.072,3.25 ± 0.076,3.4 ± 0.045
SYTDAQDKSKKIMNVTT [YMR129W/POM152],2.97 ± 0.1,2.66 ± 0.11,2.88 ± 0.056,3.03 ± 0.048
NDTISEDILQGIFNLLN [NUT1],2.38 ± 0.066,2.32 ± 0.057,2.13 ± 0.12,2.6 ± 0.088
IEMYVQEASKQYTKDEQ [RPN2],3.3 ± 0.084,3.16 ± 0.091,3.06 ± 0.057,3.31 ± 0.069
IYEEVRAVLKSFLESVI [HHF1],3 ± 0.21,3.13 ± 0.15,2.26 ± 0.15,2.66 ± 0.097
IPSSKYAYMMNSQSPRG [YLR018C/POM34],2.78 ± 0.062,2.69 ± 0.066,2.75 ± 0.044,2.75 ± 0.045
SPELKAELRPLQFKSIR [RPS7A],2.91 ± 0.11,3.54 ± 0.11,2.61 ± 0.14,3.07 ± 0.12
QKEQNVNNRDSEKGFSK [YCS4],2.91 ± 0.071,3.11 ± 0.063,2.41 ± 0.061,2.97 ± 0.036
PLPPRIDPSVTMMTVEE [RPT1],2.16 ± 0.08,1.9 ± 0.076,2.12 ± 0.17,1.88 ± 0.062
CDKSVCRKCYARLPPRA [RPL40A],2.5 ± 0.078,2.93 ± 0.073,2.56 ± 0.07,2.66 ± 0.062
EDEEKILDNTENYDDTE [DSN1],3.37 ± 0.088,3.33 ± 0.078,3.4 ± 0.058,3.44 ± 0.072
